Numbering of substitutions follows the chain as printed. Names may count otherwise.

T1: recombinant human soluble gpNMB (recombinant human gpNMB-FLAG-His) (human, UniProt Q14956 23-498)
T1 sequence: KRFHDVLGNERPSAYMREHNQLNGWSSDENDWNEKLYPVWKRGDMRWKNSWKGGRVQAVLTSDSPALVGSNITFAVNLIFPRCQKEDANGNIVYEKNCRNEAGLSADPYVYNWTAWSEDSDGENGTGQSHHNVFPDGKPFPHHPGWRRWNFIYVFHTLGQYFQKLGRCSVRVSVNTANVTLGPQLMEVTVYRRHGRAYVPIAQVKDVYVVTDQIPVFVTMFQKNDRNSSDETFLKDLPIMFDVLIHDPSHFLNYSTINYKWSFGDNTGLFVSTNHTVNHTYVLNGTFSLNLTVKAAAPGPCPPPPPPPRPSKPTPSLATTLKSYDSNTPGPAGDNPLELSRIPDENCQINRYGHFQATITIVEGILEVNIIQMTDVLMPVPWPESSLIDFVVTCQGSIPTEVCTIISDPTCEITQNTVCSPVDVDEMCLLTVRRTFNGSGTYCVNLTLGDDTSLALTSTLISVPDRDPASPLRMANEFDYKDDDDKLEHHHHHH

B1: hGPN18-2_H2L3 VH M34A (antibody, V domains shown)
VH: QVQLVQSGPGLVQPTQTLTLTCSFSGFSLSTSVAGVGWIRQPSGKGLEWLADIWWDDDKDYNPSLKSRLTISKDTSKNQVVLTMTNMDTVDTATYYCARTYYSNYEYYGMDYWGQGTLVTVSS
VL: DIVMTQSPDSLAVSLGERATINCRSSQTIILSNGNTYLEWYQQKPGQPPKLLIYKVSNRFSGVPDRFSGSGSGTDFTLTISSLQAEDVAVYYCFQGSHVPFTFGSGTKLEIKR
B2: hGPN18-2_H2L3 VH L29A (antibody, V domains shown)
VH: B1 VH with L29A, A34M
VL: B1 VL
B3: hGPN18-2_H2L3 VH W54A (antibody, V domains shown)
VH: B1 VH with A34M, W54A
VL: B1 VL
B4: hGPN18-2_H2L3 VH G37A (antibody, V domains shown)
VH: B1 VH with A34M, G37A
VL: B1 VL
B5: hGPN18-2_H2L3 VH S28A (antibody, V domains shown)
VH: B1 VH with S28A, A34M
VL: B1 VL
B6: hGPN18-2_H2L3 VH S32A (antibody, V domains shown)
VH: B1 VH with S32A, A34M
VL: B1 VL
B7: hGPN18-2_H2L3 VH G35A (antibody, V domains shown)
VH: B1 VH with A34M, G35A
VL: B1 VL
B8: hGPN18-2_H2L3 VH K59A (antibody, V domains shown)
VH: B1 VH with A34M, K59A
VL: B1 VL
B9: hGPN18-2_H2L3 VH V33A (antibody, V domains shown)
VH: B1 VH with V33A, A34M
VL: B1 VL
B10: hGPN18-2_H2L3 VH S30A (antibody, V domains shown)
VH: B1 VH with S30A, A34M
VL: B1 VL
B11: hGPN18-2_H2L3 VH I53A (antibody, V domains shown)
VH: B1 VH with A34M, I53A
VL: B1 VL
B12: hGPN18-2_H2L3 VH W55A (antibody, V domains shown)
VH: B1 VH with A34M, W55A
VL: B1 VL
B13: hGPN18-2_H2L3 VH G26A (antibody, V domains shown)
VH: B1 VH with G26A, A34M
VL: B1 VL
B14: hGPN18-2_H2L3 VH V36A (antibody, V domains shown)
VH: B1 VH with A34M, V36A
VL: B1 VL
B15: hGPN18-2_H2L3 VH T31A (antibody, V domains shown)
VH: B1 VH with T31A, A34M
VL: B1 VL
B16: hGPN18-2_H2L3 VH D111A (antibody, V domains shown)
VH: B1 VH with A34M, D111A
VL: B1 VL
B17: hGPN18-2_H2L3 VH Y61A (antibody, V domains shown)
VH: B1 VH with A34M, Y61A
VL: B1 VL
B18: hGPN18-2_H2L3 VH N62A (antibody, V domains shown)
VH: B1 VH with A34M, N62A
VL: B1 VL
B19: hGPN18-2_H2L3 VH S67A (antibody, V domains shown)
VH: B1 VH with A34M, S67A
VL: B1 VL
B20: hGPN18-2_H2L3 VH S64A (antibody, V domains shown)
VH: B1 VH with A34M, S64A
VL: B1 VL
B21: hGPN18-2_H2L3 VH L65A (antibody, V domains shown)
VH: B1 VH with A34M, L65A
VL: B1 VL
B22: hGPN18-2_H2L3 VH K66A (antibody, V domains shown)
VH: B1 VH with A34M, K66A
VL: B1 VL
B23: hGPN18-2_H2L3 VH N104A (antibody, V domains shown)
VH: B1 VH with A34M, N104A
VL: B1 VL
B24: hGPN18-2_H2L3 VH E106A (antibody, V domains shown)
VH: B1 VH with A34M, E106A
VL: B1 VL
B25: hGPN18-2_H2L3 VH M110A (antibody, V domains shown)
VH: B1 VH with A34M, M110A
VL: B1 VL
B26: hGPN18-2_H2L3 VH Y102A (antibody, V domains shown)
VH: B1 VH with A34M, Y102A
VL: B1 VL
B27: hGPN18-2_H2L3 VH T100A (antibody, V domains shown)
VH: B1 VH with A34M, T100A
VL: B1 VL
B28: hGPN18-2_H2L3 VH S103A (antibody, V domains shown)
VH: B1 VH with A34M, S103A
VL: B1 VL
B29: hGPN18-2_H2L3 VH P63A (antibody, V domains shown)
VH: B1 VH with A34M, P63A
VL: B1 VL
B30: hGPN18-2_H2L3 VH Y105A (antibody, V domains shown)
VH: B1 VH with A34M, Y105A
VL: B1 VL
B31: hGPN18-2_H2L3 VH R99A (antibody, V domains shown)
VH: B1 VH with A34M, R99A
VL: B1 VL
B32: hGPN18-2_H2L3 VH G109A (antibody, V domains shown)
VH: B1 VH with A34M, G109A
VL: B1 VL
B33: hGPN18-2_H2L3 VH Y101A (antibody, V domains shown)
VH: B1 VH with A34M, Y101A
VL: B1 VL

In one experiment the target is T1, recombinant human soluble gpNMB …. Description: antigen ELISA.
For B1, the EC50 (in general, the concentration that produces a half-maximal response) worked out at 3.58 nM.
As to B2, the EC50 was determined as 4.41 nM.
B3: the EC50 is 38 nM.
Turning to B4, the EC50 came to 3.32 nM.
B5: the EC50 came out at 3.22 nM.
Same read-out and setting: to B6 belongs 4.31 nM; to B7, 5.16 nM.
As to B8, the concentration for a half-maximal effect (EC50) was 4.42 nM.
Regarding B9, the EC50 is 8.88 nM.
As for B10, the EC50 is 6.6 nM.
For the molecule B11, the concentration for a half-maximal effect (EC50) was 6.94 nM.
Same read-out and setting: for B12 the value was 8.36 nM; for B13, 3.92 nM.
As for B14, the EC50 came out at 3.43 nM.
In the case of B15, the EC50 came out at 3.12 nM.

Another experiment shares this target. The experiment can be described thus: antigen ELISA, vs hGPN18-2_H2L3. In general terms: ELISA stands for enzyme-linked immunosorbent assay.
On to B1, for which the Relative binding activity came to 0.91.
Still for that read-out and setting: to B2 belongs 0.82; to B3, 0.2; to B4, 0.87.
Regarding B5, the Relative binding activity was determined as 0.88.
Turning to B6, the Relative binding activity was 0.78.
The same measure, in the same setting: for B7 the value was 0.68.
For the molecule B8, the Relative binding activity was 0.78.
Still for that read-out and setting: for B9 the value was 0.55; for B10, 0.97; for B11, 0.6.
Regarding B12, the Relative binding activity was 0.66.
Consider B13, for which the Relative binding activity stood at 0.84.
As for B14, the Relative binding activity is 0.92.
Same read-out and setting: for B15 the value was 0.97.

For another experiment the target is unchanged. The experiment can be described thus: antigen ELISA, vs hGPN18-2_H2L3. The source holds these as a separate data set.
For B16, the Relative binding activity was 0.62.
Take B17: the Relative binding activity came out at 0.7.
With B18, the Relative binding activity stood at 0.97.
Regarding B19, the Relative binding activity stood at 1.01.
For the molecule B20, the Relative binding activity worked out at 1.09.
As for B21, the Relative binding activity came to 0.94.
For B22, the Relative binding activity came out at 0.96.
With B23, the Relative binding activity turned out to be 0.8.
With B24, the Relative binding activity came out at 0.64.
The same measure, in the same setting: to B25 belongs 0.41.
On to B26, for which the Relative binding activity turned out to be 0.07.
In the case of B27, the Relative binding activity worked out at 0.47.
On the same count and under the same terms, to B28 belongs 0.94; to B29, 0.43; to B30, 0.47.
B31: the Relative binding activity was found to be 0.37.
As for B32, the Relative binding activity is 0.61.
Regarding B33, the Relative binding activity was 0.61.

Another experiment shares this target. The experiment can be described thus: antigen ELISA. The source holds these as a separate data set.
For B16, the EC50 was found to be 11.3 nM.
Regarding B17, the EC50 turned out to be 7.55 nM.
On to B18, for which the EC50 is 4.58 nM.
Turning to B19, the EC50 is 4.25 nM.
On the same count and under the same terms, for B20 the value was 3.59 nM.
For B21, the EC50 stood at 5.04 nM.
As for B22, the half-maximal effective concentration (EC50) was 4.96 nM.
Regarding B23, the EC50 is 5.62 nM.
The same measure, in the same setting: for B24 the value was 10.8 nM; for B25, 23.4 nM.
Consider B26, for which the 50% effective concentration (EC50) is 49.1 nM.
As for B27, the EC50 amounted to 8.44 nM.
In the case of B28, the EC50 was 4.04 nM.
Consider B29, for which the EC50 worked out at 12 nM.
With B30, the EC50 came to 15.6 nM.
Turning to B31, the EC50 was found to be 10.6 nM.
B32: the EC50 was 10.5 nM.
On to B33, for which the EC50 turned out to be 7.68 nM.

These data come from patent EP4772193A1 (Teijin Pharma Limited, dated 2026).
